Source: patent publication CN111320691A (CHENG LIANSHENG; LIU JING, dated 2020)

Legend:
[1] = molecular target: T1, 人4-1BB (h4-1BB) antigen protein, coated on ELISA plates (human, UniProt Q07011 24-186); test: ELISA, antigen coated at 1 ug/ml, antibody 1000 to 0.24 ng/ml
T1 construct: Soluble antigen for plate coating; also called 人抗原4-1BB; 抗原人H4-1BB蛋白

[2] = molecular target: T2, 人4-1BB on CHO-K1 cells (CHO-h4-1BB) (human, UniProt Q07011 24-255); test: FACS on CHO-h4-1BB cells, antibody 20 to 0.027 ug/ml
T2 construct: whole, on cells; also called 高表达人4-1BB的CHO-K1细胞株
T2 sequence (Q07011 24-255): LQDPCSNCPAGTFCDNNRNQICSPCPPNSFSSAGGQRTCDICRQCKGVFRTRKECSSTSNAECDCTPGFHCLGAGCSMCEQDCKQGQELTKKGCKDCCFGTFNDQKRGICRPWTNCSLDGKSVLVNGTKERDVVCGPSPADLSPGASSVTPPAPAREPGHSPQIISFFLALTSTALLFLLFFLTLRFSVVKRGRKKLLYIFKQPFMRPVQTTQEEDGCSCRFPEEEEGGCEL

T1 sequence (Q07011 24-186 limits assumed): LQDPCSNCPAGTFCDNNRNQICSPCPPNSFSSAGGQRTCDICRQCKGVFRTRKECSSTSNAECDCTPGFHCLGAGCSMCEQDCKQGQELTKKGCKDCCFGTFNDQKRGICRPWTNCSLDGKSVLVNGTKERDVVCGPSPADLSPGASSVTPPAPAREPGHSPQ

binding result [1]: binds
binding result [2]: binds
B1: 单克隆抗体HKB6 (抗人4-1BB抗体) (antibody, mouse IgG1, kappa, V domains shown)
VH: QVQLKESGPGLVAPSQSLSITCTVSGFSLTTYDISWIRQPPGKGLEWLGVIWTGGGTNYNSTFMSRLSINKDNSKSQVFLKMNSLQTDDTAIYYCVRVDYWGQGTSVTVSS
VL: DVVMTQTPLSLPVSLGDQASISCRSSQSLVHSNGNTYLHWFLQKPGQSPKLLIYKVSNRFPGVPDRFSGSGSGTDFTLKISRVEAEDLGVYFCSQNTHVPWTFGGGTKLEIKR
notes: Whole antibody from a mouse hybridoma, purified on Protein G; also called HKB6单克隆抗体
